Molecular target: fluorescein-labeled BalhA1 leader peptide (Bacillus sp. Al Hakam)
Experiment: fluorescence polarisation

MBP-BalhC (natural protein)
Kd: 11 µM

Source: article PMC4167974
